This passage reports degradation_or_half_life and localisation_or_trafficking results from paper PMC6697747.

The first data set is described as follows: cycloheximide chase, western blot. To be noted: glycan lost; control: NRP1-WT.
Neuropilin-1 (NRP1): N150Q: the degradation_or_half_life result is “increases”.
The same measure, in the same setting: the result for Neuropilin-1 (NRP1): N150Q/N261Q reads “increases”.
The same measure, in the same setting: the result for Neuropilin-1 (NRP1): N261Q reads “increases”; that for Neuropilin-1 (NRP1): N300Q, “no change”; that for Neuropilin-1 (NRP1): N522Q, “no change”.
Still for that read-out and setting: the result for Neuropilin-1 (NRP1): N842Q reads “no change”; that for Neuropilin-1 (NRP1): S612A, “no change”.

The nature of another data set: confocal, HT29 NRP1-WT cells, 24 h treatment. To be noted: glycan changed form; control: DMSO.
Take Neuropilin-1 (NRP1): swainsonine: the localisation_or_trafficking entry is given as “changes”.

The data set is the same for the next values; noted with them: glycan lost; control: DMSO.
As for Neuropilin-1 (NRP1): tunicamycin, the localisation_or_trafficking result was “changes”.

The nature of a further data set: confocal, Met co-internalisation with NRP1, HT29. To be noted: glycan lost; control: NRP1-WT.
Take Neuropilin-1 (NRP1): N150Q: the localisation_or_trafficking result was “increases”.
The same measure, in the same setting: the result for Neuropilin-1 (NRP1): N261Q reads “increases”.

A short description of a further data set: confocal, EEA1/Rab7 co-localisation, 10% FBS medium. To be noted: glycan lost; control: NRP1-WT.
In the case of Neuropilin-1 (NRP1): N150Q, the localisation_or_trafficking entry is “changes”.
Same read-out and setting: in the case of Neuropilin-1 (NRP1): N150Q/N261Q it was “changes”; in that of Neuropilin-1 (NRP1): N261Q, “changes”.
The same measure, in the same setting: the result for Neuropilin-1 (NRP1): N300Q reads “no change”; that for Neuropilin-1 (NRP1): N522Q, “no change”.
With Neuropilin-1 (NRP1): N842Q, the localisation_or_trafficking entry was “no change”.
The same measure, in the same setting: the result for Neuropilin-1 (NRP1): S612A reads “no change”.

Another data set is described as follows: confocal, surface delivery; 24 h transient or serum-free. To be noted: glycan lost; control: NRP1-WT.
As to Neuropilin-1 (NRP1): N150Q, the localisation_or_trafficking entry is “no change”.
Still for that read-out and setting: in the case of Neuropilin-1 (NRP1): N261Q it was “no change”.

The next data set in a line: confocal, β1-integrin co-internalisation with NRP1, HT29. To be noted: glycan lost; control: NRP1-WT.
As to Neuropilin-1 (NRP1): N150Q, the localisation_or_trafficking entry is reported as “increases”.
The same measure, in the same setting: the result for Neuropilin-1 (NRP1): N261Q reads “increases”.

A further data set can be described thus: confocal, HGF-stimulated endocytosis after serum starvation. To be noted: glycan lost; control: NRP1-WT.
As to Neuropilin-1 (NRP1): N150Q, the localisation_or_trafficking entry was “increases”.
Still for that read-out and setting: in the case of Neuropilin-1 (NRP1): N261Q it was “increases”; in that of Neuropilin-1 (NRP1): N300Q, “no change”; in that of Neuropilin-1 (NRP1): N522Q, “no change”.
The same measure, in the same setting: in the case of Neuropilin-1 (NRP1): N842Q it was “no change”; in that of Neuropilin-1 (NRP1): S612A, “no change”.
